Test results: the supplement of paper PMC10567573
± gives the standard deviation.

Assay: protein stability index of a GFP-peptide fusion (GPS, HEK-293T) (PSI 1-6); higher = more stable
Details: c terminus: a fixed tail appended
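Also: 24-mer peptide tiles fused after GFP, lentivirally expressed, FACS-sorted into six equal bins by GFP/DsRed ratio, decoded by Illumina sequencing, PSI is the read-weighted mean bin number.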

| Sequence | protein stability index (treatment: DMSO) | protein stability index (treatment: MLN4924 1 uM, 8 h) |
| --- | --- | --- |
| MLEKMDLKEFDLDALLGIDDLETM [ATF4] | 3.85 ± 0.14 | 3.87 ± 0.26 |
| GGADIIVIKYNVNDKFSFHEVKDN [RHOBTB3] | 2.72 ± 0.42 | 2.09 ± 0.55 |
| DGLFDNMPDYMILQELKKLKNSNY [PPTC7] | 2.57 ± 0.3 | 2.85 ± 0.64 |
| RQVPGSDPACYEFLWGPRALIETS [MAGEA6] | 2.62 ± 0.56 | 2.85 ± 0.35 |
| KGGEERKAEGGEEDSLGCLTADTK [IRX6] | 5.44 ± 0.25 | 5.52 ± 0.16 |
| HPLAYGMVGPLAQDPQSPMAGLRW [POMT2] | 2.85 ± 0.39 | 2.77 ± 0.18 |
| GAQPCLLLPIVPLSWLVWLLLLLL [ADAMTS4] | – | 2.67 ± 1.3 |
| HSGYDFGYLIKILTNSNLPEEELD [CNOT7] | 2.27 ± 0.19 | 2.48 ± 0.3 |
| NQKLFDLRGKFKRPPLRRVRMSAD [TNNI2] | 3.17 ± 0.21 | 3.51 ± 0.26 |
| VVNSHSLSLLGKLTISAAFNIVYI [SLC22A15] | 3.07 ± 0.43 | 3.09 ± 0.64 |
| SSSEQLQCCQTEIIELRRTVNALE [KRT36] | 3.58 ± 0.12 | 3.34 ± 0.38 |
| QAQKCYRDLALVSRDGMNIVLNKI [INTS3] | 2.29 ± 0.23 | 2.61 ± 0.44 |
| YDDDIDDEDEEEEDADCYDDDDSG [UBE2R2] | 5.58 ± 0.11 | 5.61 ± 0.24 |
| NFYYFSLIPKTWYSAEQFCVSRNS [CD207] | 2.6 ± 0.53 | 2.3 ± 0.45 |
| LDTVEEVLSVSKILHIPQVTKLCV [KLHL14] | 2.35 ± 0.48 | 2.79 ± 0.43 |
| LKPTLTIIKTEKVDLELFPSPDME [ETS1] | 3.4 ± 0.18 | 3.21 ± 0.32 |
| KRRANQKSSAQGPIPWFLPESRSL [PPEF2] | 3.49 ± 0.23 | 3.57 ± 0.16 |
| NSAAHLFGYRPYDKNISPRENILV [SCD] | 2.22 ± 0.38 | 2.57 ± 0.26 |
| LKDLLLQVGRGLRYIHSMSLVHMD [WEE1] | 2.64 ± 0.74 | 2.85 ± 0.69 |
| STFIRRYSRYLNEKAFSYRQMAFD [SNAP91] | 2.11 ± 0.24 | 2.22 ± 0.28 |
| PYIQLPSHSNITGIVEVILGETKA [TRIB1] | 2.63 ± 0.48 | 2.67 ± 0.52 |
| SEKAANDDHSVRVAREDVRESCPP [CPXM2] | 5.49 ± 0.22 | 5.44 ± 0.061 |
| HGRGTEVLLEEPLPLETARESPSF [ZNF263] | 4.69 ± 0.28 | 4.81 ± 0.25 |

| Sequence | protein stability index (treatment: DMSO) | protein stability index (treatment: MLN4924 1 uM, 8 h) |
| --- | --- | --- |
| LDLLSELYQKQPKIGYHLLYYLRA [INTS3] | 3.21 ± 0.65 | 2.74 ± 0.53 |
| PPRRGVSGDRDENSFSLNSSISSS [MAP2] | 4.84 ± 0.14 | 4.74 ± 0.24 |
| GPSRSRHRRRSRERGPYRTRKHAH [CLK3] | 4.92 ± 0.24 | 4.8 ± 0.38 |
| GHEKTAKSKTRSLLKRMESLKLKS [DLC1] | 3.62 ± 0.17 | 3.89 ± 0.5 |
| NYMNAAMVHINRALKLIIRLFLVE [RTN3] | 2.24 ± 0.21 | 2.27 ± 0.26 |
| STSAVPNLFVPLNTNPKEVQEMRN [ADD1] | 4.53 ± 0.21 | 4.43 ± 0.28 |
| KLQQLPADFGRLVNLQHLDLLNNK [LRRC59] | 2.97 ± 0.27 | 3.01 ± 0.33 |
| ILELVVLEQFVAILPKELQTWVRD [ZNF24] | 2.35 ± 0.54 | 2.45 ± 0.46 |
| KILISGLEPSTPYRFLLYGLHEGK [TNXB] | 2.75 ± 0.77 | 3.54 ± 2.4 |
| VLALEERFGVRPKVTGYLISYSSM [MFSD9] | 2.17 ± 0.53 | 1.95 ± 0.099 |
| VNYLPQNMTQDEFKSLFGSIGDIE [ELAVL3] | 3.8 ± 0.11 | 4 ± 0.27 |
| PSSQSSSGGGRDSSSSILRWLPEK [ELOA2] | 4.15 ± 0.12 | 4.25 ± 0.1 |
| SLNGVYPRMNEVYTRLGEMNNAVR [CEP70] | 2.55 ± 0.21 | 3.08 ± 0.31 |
| ECQLTHSHPACPLEFAYYFRPGHL [ZSWIM9] | 2.57 ± 0.036 | 2.59 ± 0.47 |
| LGLTNQSRRYNRKEPAEFNGDGAF [ZNF649] | 3.96 ± 0.29 | 4.26 ± 0.37 |
| KPDGSRHQDVPSQDDSKPTQRQFT [AASDHPPT] | 5.44 ± 0.14 | 5.353 ± 0.026 |
| ESVVSSAVPAAATRTTSFKGTSPS [KCTD10] | 5.09 ± 0.056 | 5.25 ± 0.21 |
| LWILHLLLECYIQYHHSKIRNRGY [TMEM192] | 2.61 ± 0.51 | 2.49 ± 0.32 |
| NTNPKEVQEMRNKIREQNLQDIKT [ADD1] | 4.98 ± 0.18 | 5.11 ± 0.13 |
| CVLTTPCLTQSTAAPAVRASSSPV [SLA] | 3.47 ± 0.13 | 3.49 ± 0.14 |
| LAMLNAVTEDLRLKDWEHSIALRN [SCARA5] | 2.86 ± 0.17 | 2.93 ± 0.16 |
| YPALASKNGKKWEILNFNQYYEAC [ACSBG2] | 2.68 ± 0.26 | 2.81 ± 0.41 |
| AFGNPKFALQGLPLNCAPCPRRSE [IRX6] | 4.202 ± 0.038 | 4.08 ± 0.13 |

| Sequence | protein stability index (treatment: DMSO) | protein stability index (treatment: MLN4924 1 uM, 8 h) |
| --- | --- | --- |
| SLREYNDFLEEVEEIVFNLTNNVD [MNAT1] | 2.6 ± 0.47 | 3.13 ± 0.44 |
| LKVAAESCKADVVELLLSHADCDR [FEM1B] | 3.16 ± 0.19 | 3.13 ± 0.36 |
| RTLPAFQVPYPPRQLLRDFQSRLP [P3H4] | 2.76 ± 0.2 | 2.92 ± 0.54 |
| KFAGSFYFAITVITTIGYGHAAPG [KCNK9] | 3.42 ± 0.31 | 3.27 ± 0.17 |
| TLERYMCSRFFIDFPDILEQQRKL [TENT5C] | 2.35 ± 0.16 | 2.37 ± 0.037 |
| LYILGNFMQLKCFSSQKLKCLSMF [PNLIPRP1] | 3.67 ± 0.66 | 3.46 ± 0.73 |
| EASRLNIERMKQIYQQLSRYRGLG [CRY1] | 2.48 ± 0.26 | 2.37 ± 0.3 |
| TPAMSSSSSSRVLLRQQLMRAQAQ [TFE3] | 3.65 ± 0.26 | 3.66 ± 0.42 |
| EEDNWDPELMEHTEAESEQEGSSG [TEX19] | 5.7 ± 0.26 | 5.65 ± 0.16 |
| TSANKITLVSSGSGTMGAAKVTGE [FLOT1] | 4.63 ± 0.12 | 4.69 ± 0.26 |
| EPVTLETPAFMFRLDASTSHQNLR [FSD1] | 3.6 ± 0.35 | 3.83 ± 0.2 |
| FLDWLRTNPDLIIVCAQSSQSLWN [SMG5] | 2.5 ± 0.41 | 2.36 ± 0.41 |
| FARHIKKSEGQKIPKVELQISIYG [GULP1] | 2.06 ± 0.41 | 1.9 ± 0.26 |
| GSSSSSSSSINSPDRASGPEGSLS [FAM104A] | 5.5 ± 0.22 | 5.45 ± 0.2 |
| ESYFTTRTYGEPESAGPSRAVRQS [EMD] | 4.62 ± 0.26 | 4.57 ± 0.18 |
| LSRKVAELVHFLLLKYRAREPVTK [MAGEA3] | 2.97 ± 0.42 | 2.44 ± 0.43 |
| IRHNLSLNKCFIKVPREKDEPGKG [FOXJ1] | 3.78 ± 0.3 | 3.9 ± 0.2 |
| VETAFERLQQELEQQRCLLLARLR [TRIM15] | 2.81 ± 0.33 | 2.86 ± 0.3 |
| GPLLDSLYWTKWYNNQSLGHGSHS [PKD2L1] | 2.51 ± 0.16 | 2.47 ± 0.38 |
| HAPGVPKILVGNRLHLAFKRQVPR [RAB40A] | 2.58 ± 0.28 | 2.88 ± 0.31 |
| GTEQSRGLGHGSTSRGGPWVGTGL [CPOX] | 3.27 ± 0.84 | 3.6 ± 0.26 |
| INSIIHNPRAPVIIYKQTKGGVQN [CEP70] | 2.86 ± 0.43 | 3.34 ± 0.51 |
| RLHNLYSTPRCAQQAALPRLSRRM [CBY2] | 2.28 ± 0.31 | 2.55 ± 0.4 |

| Sequence | protein stability index (treatment: DMSO) | protein stability index (treatment: MLN4924 1 uM, 8 h) |
| --- | --- | --- |
| YVIVSGAQRKEERWDMADNEQVLT [YJU2B] | 2.88 ± 0.37 | 3.19 ± 0.24 |
| FVKALDDLHKMNHVTPPNVSLGAT [JUNB] | 2.43 ± 0.34 | 2.94 ± 0.49 |
| EMSRGEQDLIEDLKLARKAYHDPM [NET1] | 4.5 ± 0.27 | 4.47 ± 0.33 |
| GEIETIARFGSGPCKTRDDEPVCG [APMAP] | 4.66 ± 0.47 | 5.13 ± 0.27 |
| PRKTAAPVNALVSHLLVVEPEKLY [ESRRA] | 2.83 ± 0.22 | 2.5 ± 0.18 |
| SSSSSSSPTSGSPRGSHSSALERL [LURAP1L] | 4.83 ± 0.15 | 4.91 ± 0.14 |
| DTHSWKSELQREMEALAAETNLLL [TEKT4] | 3.25 ± 0.33 | 3.59 ± 0.44 |
| SDPEISDVDEDEPGGLVGSADVVS [PPFIA4] | 5.54 ± 0.34 | 5.35 ± 0.45 |
| AVEISDHPGEHEVGEPEFHYIAGA [CPXM2] | 4.82 ± 0.57 | 5.17 ± 0.32 |
| ASPMSADRVVAFMDHIRIFQEQVE [NR2F2] | 2.8 ± 0.44 | 3.1 ± 0.29 |
| IGNLVKILHGTRGELLLDVAWHPV [RBBP5] | 2.72 ± 0.41 | 2.65 ± 0.43 |
| CSLDKRVILIFHCEFSSERGPRMC [CDC25B] | 2.28 ± 0.63 | 2.54 ± 0.83 |
| RLEAARLSLEEELSRVKAAALSER [LRRC45] | 3.71 ± 0.21 | 4.04 ± 0.39 |
| DLHCVLVTNPHSSQWKDPALSQLI [GADD45A] | 2.23 ± 0.26 | 2.3 ± 0.16 |
| SPLYADPYTPPATSHRRVTDVRGL [PLEKHN1] | 3.76 ± 0.35 | 3.63 ± 0.35 |
| SVDEQNALREVYAHAVLGQHSHVV [WEE1] | 3.42 ± 0.14 | 3.47 ± 0.33 |
| AGYRLGPAQPGADSSFPPALAEGY [TBX6] | 3.45 ± 0.38 | 3.62 ± 0.23 |
| VNFMYLQSLLQPKSSSVDSELTSL [SMG5] | 2.21 ± 0.39 | 2.15 ± 0.39 |
| HFQPNSPASDLEAALEAAGEGLNV [NANOGP8] | 5.05 ± 0.26 | 5.24 ± 0.28 |
| DKERFTTLVQDLANAFQQEAQTSG [CHIT1] | 4.19 ± 0.066 | 4.26 ± 0.12 |
| SAPPITPECRQVLKTSRKDVKDKE [CHGB] | 5.26 ± 0.25 | 5.41 ± 0.22 |
